Reference: paper PMC7511888, “Dependence of PINK1 accumulation on mitochondrial redox system” (Aging Cell, 2020)
Numbering of substitutions follows the chain as printed. Names and notes keep the numbering of the source. One block for each molecule: values may come before it.

Legend:
[1] = target: CHCHD4 (human (endogenous in HEK293)) (UniProt Q8N4Q1); test: co-IP; HEK293 cells transfected with PINK1-EGFP or its mutants for 24 hr; lysed; immunoprecipitation of endogenous CHCHD4 with anti-CHCHD4 antibody; immunoblot; level in the precipitant compared to input
CHCHD4 = target: T1, CHCHD4 (human (endogenous in HEK293), UniProt Q8N4Q1 1-142); test: as above; settings: partners not purified
T1 construct: CHCHD4, mammalian homologue of yeast Mia40; endogenous protein of HEK293 cells, precipitated with polyclonal anti-CHCHD4 antibodies (Proteintech); source: endogenous, HEK293 lysate
T1 sequence (looked up): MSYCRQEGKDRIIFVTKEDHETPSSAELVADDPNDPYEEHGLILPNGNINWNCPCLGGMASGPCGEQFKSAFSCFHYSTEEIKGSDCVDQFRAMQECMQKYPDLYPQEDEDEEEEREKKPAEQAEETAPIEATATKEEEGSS

relative level in the precipitants as compared to input [1]: 1.01
Molecule: PINK1‐EGFP ∆166‐171 (AA166‐171 deletion) (from UniProt Q9BXM7 78-581) (natural protein)

relative level in the precipitants as compared to input (CHCHD4): 0.2
B1: PINK1‐EGFP A168P (natural protein, UniProt Q9BXM7 78-581, looked up)
chain: AARLQRQFVVRAWGCAGPCGRAVFLAFGLGLGLIEEKQAESRRAVSACQEIQAIFTQKSKPGPDPLDTRRLQGFRLEEYLIGQSIGKGCSPAVYEATMPTLPQNLEVTKSTGLLPGRGPGTSAPGEGQERAPGAPAFPLAIKMMWNISAGSSSEAILNTMSQELVPASRVALAGEYGAVTYRKSKRGPKQLAPHPNIIRVLRAFTSSVPLLPGALVDYPDVLPSRLHPEGLGHGRTLFLVMKNYPCTLRQYLCVNTPSPRLAAMMLLQLLEGVDHLVQQGIAHRDLKSDNILVELDPDGCPWLVIADFGCCLADESIGLQLPFSSWYVDRGGNGCLMAPEVSTARPGPRAVIDYSKADAWAVGAIAYEIFGLVNPFYGQGKAHLESRSYQEAQLPALPESVPPDVRQLVRALLQREASKRPSARVAANVLHLSLWGEHILALKNLKLDKMVGWLLQQSAATLLANRLTEKCCVETKMKMLFLANLECETLCQAALLLCSWRAAL
notes: PINK1 as in PINK1-EGFP with the PD-associated mutation A168P; also called PINK1 A168P; PD‐associated mutant; source: HEK293, transfected, in lysate; not shown: EGFP (from the vector pEGFP-N3), C-terminal, kept

relative level in the precipitants as compared to input (CHCHD4): 3.31
B2: PINK1‐EGFP Y171S (natural protein, UniProt Q9BXM7 78-581, looked up)
chain: B1 chain with P91A, Y94S
notes: PINK1 as in PINK1-EGFP with Y171S; also called Y171S point mutant; source: HEK293, transfected, in lysate; not shown: EGFP (from the vector pEGFP-N3), C-terminal, kept

relative level in the precipitants as compared to input (CHCHD4): 0.39
B3: PINK1‐EGFP V170G (natural protein, UniProt Q9BXM7 78-581, looked up)
chain: B1 chain with P91A, V93G
notes: PINK1 as in PINK1-EGFP with the PD-associated mutation V170G; also called PINK1 V170G; PD‐associated mutant; source: HEK293, transfected, in lysate; not shown: EGFP (from the vector pEGFP-N3), C-terminal, kept
